The experiment has as its target Full-length wt Lst7 (K. lactis) with C-terminal Strep tag (Kluyveromyces lactis). As to the kind of experiment: AUC + SEC-MALS; purified K. lactis Lst7/Lst4 complex; AUC sedimentation velocity with interference data at 0.15 mg/ml, SEDFIT; SEC-MALS of 50 µg in 50 µl on TSKgel SuperSW2000 in PBS, 0.35 ml/min.

B1: Engineered Lst4 (K. lactis) aa58-714 with a deletion of the intra-DENN loop (aa 388-534) (domain or fragment)
chain: NDRLHNGGFRLIISQELGHVTSRNNYQVVLDHSSVNFHTGAHIPLNELKDYIFGSSIRTIDYSASSDKIKVVKSANIVLFTRIFYLNEKSTLRIAISCCVTDDVLPVLTECWPHISSFLDQCENTLLKYLAKNDTQFLPHDWKARNCIEVAAVLQTFQRKIIPLLSGYSDTPRLFLYPMDSIPYIKTWVKYVTNWIELKDGPRVRFLPILLAKLRYDFASLLKENSNTRIVILTGNMNVANRLIFILTAFLGPHFRGTLHKSINSQGCPSPAGRKMSNMSGASDFPFELKPSNSSITETNKGWEIPRIKRDPTFSVTSVSSDETGVQTFILNDAFADLVIDPPSYDTTVSNEKHGEIVEVNMASPRKQRNNQNQELLRRFTSYTPHYNQWFQLQACQITTESENKVIHSMKRDLTYADQDPCKKDKSTSTLLISLRSREIKQVTIVRDTNNRFIQRTKKILQNGKVGPVSRAMLSGIETTDQHLKKLMECNNDNEALVSLFNDIVTCAST
The term stoichiometry N denotes the number of molecules, sites or subunits per partner or assembly. For the molecule B1, the stoichiometry N stood at 1.

These data come from PMC4703059.
